For data set [1], the target named is Staphylococcus aureus DnaA (SaDnaA) (Staphylococcus aureus subsp. aureus ED98). The data set can be described thus: SPR; SaPriA or SaDnaA immobilised on CM5 chips, Biacore T200, 293 K, 40 mM Tris, 200 mM NaCl, 0.05% Tween-20, pH 8.0; SaDnaD solutions 7.6-250 nM as analyte; 1:1 (Langmuir) model. In general terms: SPR reads the build-up and loss of mass on a sensor chip optically.

In data set [2] the target is Staphylococcus aureus PriA helicase (SaPriA) (Staphylococcus aureus subsp. aureus ED98).
A further data set addresses T1, SaDnaD1-195 (Staphylococcus aureus subsp. aureus ED98, UniProt Q9EUT0 1-195, del196-228).
T1 sequence: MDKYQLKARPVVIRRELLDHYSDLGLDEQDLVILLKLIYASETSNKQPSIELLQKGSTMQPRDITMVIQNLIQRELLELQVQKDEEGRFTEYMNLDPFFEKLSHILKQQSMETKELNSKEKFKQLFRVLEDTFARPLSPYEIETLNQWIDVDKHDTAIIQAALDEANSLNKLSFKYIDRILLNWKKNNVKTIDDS
The data set can be described thus: SEC; Superdex 200 HR 10/30, Buffer B (20 mM HEPES, 100 mM NaCl, pH 7.0), purified protein 2 mg/mL (methods; 4 mg/mL in the results for SaDnaD), calibrated with standard proteins; oligomer size from the estimated native mass.

Data set [3] deals with Staphylococcus aureus PriA helicase (SaPriA) (Staphylococcus aureus subsp. aureus ED98). The source holds these as a separate data set.
Data set [4] has the same target. This is another data set of the same source.
Data set [5] shares this target. The data set can be described thus: SPR; SaPriA or SaDnaA immobilised on CM5 chips, Biacore T200, 293 K, 40 mM Tris, 200 mM NaCl, 0.05% Tween-20, pH 8.0; SaDnaD solutions 7.6-250 nM as analyte; 1:1 (Langmuir) model.
Data set [6] has as its target Staphylococcus aureus DnaD (SaDnaD) (Staphylococcus aureus subsp. aureus ED98) (UniProt Q9EUT0). The experiment in a line: SEC; Superdex 200 HR 10/30, Buffer B (20 mM HEPES, 100 mM NaCl, pH 7.0), purified protein 2 mg/mL (methods; 4 mg/mL in the results for SaDnaD), calibrated with standard proteins; oligomer size from the estimated native mass.
In the next data set the target is T2, SaDnaD1-204 (Staphylococcus aureus subsp. aureus ED98, UniProt Q9EUT0 1-204, del205-228).
T2 sequence: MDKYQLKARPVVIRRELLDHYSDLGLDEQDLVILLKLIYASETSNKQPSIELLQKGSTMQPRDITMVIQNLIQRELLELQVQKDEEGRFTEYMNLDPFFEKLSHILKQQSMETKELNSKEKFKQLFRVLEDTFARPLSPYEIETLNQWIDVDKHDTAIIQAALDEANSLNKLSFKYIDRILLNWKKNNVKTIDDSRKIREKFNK
Described as above.

For the next data set, the target named is T3, SaDnaD1-200 (Staphylococcus aureus subsp. aureus ED98, UniProt Q9EUT0 1-200, del201-228).
T3 sequence: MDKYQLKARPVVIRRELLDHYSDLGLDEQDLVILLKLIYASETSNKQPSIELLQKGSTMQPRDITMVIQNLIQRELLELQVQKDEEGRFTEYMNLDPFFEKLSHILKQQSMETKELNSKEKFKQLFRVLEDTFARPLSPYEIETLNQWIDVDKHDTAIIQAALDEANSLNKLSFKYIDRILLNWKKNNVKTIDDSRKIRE
The description is as above.

For data set [7], the target named is T4, SaDnaD (Staphylococcus aureus subsp. aureus ED98, UniProt Q9EUT0 1-228).
T4 sequence: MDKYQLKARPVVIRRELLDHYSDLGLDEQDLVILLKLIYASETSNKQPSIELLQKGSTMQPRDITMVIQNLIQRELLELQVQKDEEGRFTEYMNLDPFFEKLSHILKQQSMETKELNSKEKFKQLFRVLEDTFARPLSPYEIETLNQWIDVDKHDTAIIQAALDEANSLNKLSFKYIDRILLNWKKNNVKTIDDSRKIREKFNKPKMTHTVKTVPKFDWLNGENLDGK
The experiment in a line: EMSA; EMSA: 20 mM Tris-HCl pH 8.0, 100 mM NaCl, 25 C, 30 min, 1.7 nM DNA, gel at 4 C in TBE; fluorescence: 20 mM Tris-HCl pH 8.0, 200 or 500 mM NaCl, 0.1 uM tetramer. As to conditions: protein: recombinant; tags: C-terminal His tag (pET21e); chain copies: 4; label: 5'-32P. For orientation: Mobility shift assays separate free from complexed probe on a gel.

Data set [8] concerns the target T4, SaDnaD. The experiment in a line: EMSA; two complexes summed; EMSA: 20 mM Tris-HCl pH 8.0, 100 mM NaCl, 25 C, 30 min, 1.7 nM DNA, gel at 4 C in TBE; fluorescence: 20 mM Tris-HCl pH 8.0, 200 or 500 mM NaCl, 0.1 uM tetramer. As to conditions: protein: recombinant, tags: C-terminal His tag (pET21e), chain copies: 4.

Values joined by “and” are separate entries in the source; they are usually repeats but may differ in a detail not shown here. Identical values can stand only once.

The Kd is the equilibrium constant for the complex coming apart. Lower therefore signals higher affinity. One may read the stoichiometry N as the number of molecules, sites or subunits per partner or assembly. For the molecule “SaDnaD1-195 (from UniProt Q9EUT0 1-195) (domain or fragment)”, the Kd in data set [1] stood at 150 nM. Further, the SaPriA ATPase activity with tag-free SaDnaD1-195 (10 μM), stimulation over SaPriA alone in data set [2] worked out at 2 fold. In the data set with SaDnaD1-195, the stoichiometry N is 4. This molecule returned a Fold of Vmax/Km of SaPriA ATPase with tag-free SaDnaD1-195 (10 μM) against PriA alone in data set [3] of 1.2 fold. This molecule also displayed a SaPriA ATPase activity with His-tagged SaDnaD1-195 (10 μM), stimulation over SaPriA alone in [4] of 2 fold.

For “Staphylococcus aureus DnaD (SaDnaD) (from UniProt Q9EUT0 1-228) (natural protein)”, the Kd in data set [1] stood at 17 nM; in [5] it was 2 nM. Further, in data set [2], the SaPriA ATPase activity with tag-free SaDnaD (10 μM), stimulation over SaPriA alone was 11 fold and 12 fold. Further, the stoichiometry N in data set [6] was 4. In data set [3], this molecule came in with a Fold of Vmax/Km of SaPriA ATPase with tag-free SaDnaD (10 μM) against PriA alone of 5.3 fold. Besides, in data set [4], the SaPriA ATPase activity with His-tagged SaDnaD (10 μM), stimulation over SaPriA alone amounted to 12 fold.

In the case of “SaDnaD1-204 (from UniProt Q9EUT0 1-204) (domain or fragment)”, the Kd in data set [5] is 11 nM. In the data set with SaDnaD1-204, the stoichiometry N is 4.

In [3], “tag-free SaDnaDY176A mutant protein (from UniProt Q9EUT0 1-228) (natural protein)” returned a Fold of Vmax/Km of SaPriA ATPase with tag-free SaDnaDY176A (10 μM) against PriA alone of 5.1 fold.

As for “SaDnaD1-200 (from UniProt Q9EUT0 1-200) (domain or fragment)”, the Kd in data set [5] was found to be 26 nM. In the data set with SaDnaD1-200, the stoichiometry N was 4.

B1: dT55 (ssDNA)
DNA: TTTTTTTTTTTTTTTTTTTTTTTTTTTTTTTTTTTTTTTTTTTTTTTTTTTTTTT
B1: in the data set with SaDnaD [7], the “apparent K (half saturation)” value was 1400 ± 100 nM.

B2: dT25 (ssDNA)
DNA: TTTTTTTTTTTTTTTTTTTTTTTTT
Turning to B2, the “apparent K (half saturation)” value with SaDnaD [7] worked out at 4700 ± 800 nM.

B3: dT65 (ssDNA)
DNA: TTTTTTTTTTTTTTTTTTTTTTTTTTTTTTTTTTTTTTTTTTTTTTTTTTTTTTTTTTTTTTTTT
B3: the “apparent K (half saturation)” value in the data set with SaDnaD [8] (label: 5'-32P (EMSA), unlabeled in fluorescence titration) came out at 500 ± 100 nM.

B4: dT35 (ssDNA)
DNA: TTTTTTTTTTTTTTTTTTTTTTTTTTTTTTTTTTT
In the case of B4, the “apparent K (half saturation)” value in the data set with SaDnaD [7] was 2200 ± 300 nM.

B5: dT45 (ssDNA)
DNA: TTTTTTTTTTTTTTTTTTTTTTTTTTTTTTTTTTTTTTTTTTTTT
For B5, the “apparent K (half saturation)” value in the data set with SaDnaD [7] amounted to 2000 ± 200 nM.

B6: dT60 (ssDNA)
DNA: TTTTTTTTTTTTTTTTTTTTTTTTTTTTTTTTTTTTTTTTTTTTTTTTTTTTTTTTTTTT
On to B6, for which the “apparent K (half saturation)” value in the data set with SaDnaD [8] (label: 5'-32P) stood at 1500 ± 100 nM.

The values above are taken from PMC4909229, “Characterization of Staphylococcus aureus Primosomal DnaD Protein: Highly Conserved C-Terminal Region Is Crucial for ssDNA and PriA Helicase Binding but Not for DnaA Protein-Binding and Self-Tetrameri”.
